Publication PMC9067469

Key:
Experiment in all cases: SPR
[1] = target: IgG1 (pH-dependent anti-latent myostatin antibody with wild-type human IgG1 constant region) (human)
[2] = target: V3 (human IgG1 Fc variant G236N/H268D/A330K of the pH-dependent anti-latent myostatin antibody) (human)
[3] = target: V3-pI(A)-N434A (human IgG1 Fc variant G236N/H268D/Q311R/A330K/D413K/N434A of the pH-dependent anti-l (human))
[4] = target: V2 (human IgG1 Fc variant G236N/H268D of an anti-latent myostatin antibody) (human)
[5] = target: V3-N434A (human IgG1 Fc variant G236N/H268D/A330K/N434A of the pH-dependent anti-latent myostatin antibody) (human)
[6] = target: V1 (human IgG1 Fc variant G236N of an anti-latent myostatin antibody) (human)

| relative binding per units (IgG1 = 1) (relative to IgG1) [1] | relative binding per units (IgG1 = 1) (relative to IgG1) [3] | Substance | also measured |
| --- | --- | --- | --- |
| 1 | 2.76 | cynomolgus FcγRIIa3, extracellular region (receptor) | relative binding per units (IgG1 = 1) (relative to IgG1) [2]: 2.77; relative binding per units (IgG1 = 1) (relative to IgG1) [4]: 2.36 |
| 1 |  | cynomolgus FcγRIIIa(S), extracellular region (from UniProt Q8SPW2 17-208) (receptor) |  |
| 1 |  | cynomolgus FcγRIIIa(R), extracellular region (from UniProt Q8SPW2 17-208) (receptor) |  |
|  |  | cynomolgus FcRn (from UniProt Q8SPV9 24-365) (receptor) | Kd [1]: 1.52 µM; Kd [3]: 0.355 µM; Kd [5]: 0.526 µM |
| 1 | 2.52 | cynomolgus FcγRIIa2, extracellular region (receptor) | relative binding per units (IgG1 = 1) (relative to IgG1) [2]: 2.56; relative binding per units (IgG1 = 1) (relative to IgG1) [4]: 1.89 |
| 1 | 0.71 | cynomolgus FcγRIa, extracellular region (receptor) |  |
| 1 | 1.97 | cynomolgus FcγRIIa1, extracellular region (receptor) | relative binding per units (IgG1 = 1) (relative to IgG1) [2]: 2; relative binding per units (IgG1 = 1) (relative to IgG1) [4]: 1.45 |
|  |  | human FcγRIa, extracellular region (from UniProt P12314 16-292) (receptor) | relative binding per units (IgG1 = 1) (relative to IgG1) [6]: 0.16 |
| 1 |  | human FcγRIIIa(F), extracellular region (from UniProt P08637 17-208) (receptor) |  |
| 1 |  | human FcγRIIIa(V), extracellular region (from UniProt P08637 17-208) (receptor) |  |
| 1 | 2.83 | cynomolgus FcγRIIb, extracellular region (receptor) |  |
